Reference: publication doi:10.1101/2025.02.06.636796

Experiments:
[1] = biological target: Taxol-stabilized microtubules of mouse brain tubulin (untreated, wild-type) (mouse) (UniProt P68369); test: FRAP in TIRF microscopy on immobilised microtubules
[2] = biological target: Taxol-stabilized microtubules of mouse brain tubulin (untreated, wild-type) (mouse) (UniProt P68369); test: cell lysate-based TIRF microscopy on immobilised microtubules

fluorescence recovery at 6.5 min after photobleaching [1]: 20% | cumulative fluorescent signal on MTs [2]: 395 | density on MTs at 10x lysate dilution [2]: 2980 | density on MTs at 100x lysate dilution [2]: 731 | fluorescent intensity on microtubules [2]: 194
Substance: YFP-Trim69 wild type (Tripartite motif protein 69) (from UniProt Q86WT6 1-500) (natural protein)
